Data: article PMC1331985 (Nucleic Acids Research, 2006)

Molecular target: the molecule itself
Experiment: SEC

Protein | binding result
Est3p-K71A (natural protein, S. cerevisiae, UniProt Q03096 1-181, looked up) MPKVILESHSKPTDSVFLQPWIKALIEDNSEHDQYHPSGHVIPSLTKQDLALPHMSPTILTNPCHFAKITAFYNVCDYKVYASIRDSSHQILVEFSQECVSNFERTHNCRITSETTNCLMIIGDADLVYVTNSRAMSHFKICLSNISSKEIVPVLNVNQATIFDIDQVGSLSTFPFVYKYL | binds
Est3p-T115A (natural protein, S. cerevisiae, UniProt Q03096 1-181, looked up) MPKVILESHSKPTDSVFLQPWIKALIEDNSEHDQYHPSGHVIPSLTKQDLALPHMSPTILTNPCHFAKITKFYNVCDYKVYASIRDSSHQILVEFSQECVSNFERTHNCRITSEATNCLMIIGDADLVYVTNSRAMSHFKICLSNISSKEIVPVLNVNQATIFDIDQVGSLSTFPFVYKYL | binds
Est3p-E104A (natural protein, S. cerevisiae, UniProt Q03096 1-181, looked up) MPKVILESHSKPTDSVFLQPWIKALIEDNSEHDQYHPSGHVIPSLTKQDLALPHMSPTILTNPCHFAKITKFYNVCDYKVYASIRDSSHQILVEFSQECVSNFARTHNCRITSETTNCLMIIGDADLVYVTNSRAMSHFKICLSNISSKEIVPVLNVNQATIFDIDQVGSLSTFPFVYKYL | binds
Est3p-S87A (natural protein, S. cerevisiae, UniProt Q03096 1-181, looked up) MPKVILESHSKPTDSVFLQPWIKALIEDNSEHDQYHPSGHVIPSLTKQDLALPHMSPTILTNPCHFAKITKFYNVCDYKVYASIRDASHQILVEFSQECVSNFERTHNCRITSETTNCLMIIGDADLVYVTNSRAMSHFKICLSNISSKEIVPVLNVNQATIFDIDQVGSLSTFPFVYKYL | binds
Est3p-F72A (natural protein, S. cerevisiae, UniProt Q03096 1-181, looked up) MPKVILESHSKPTDSVFLQPWIKALIEDNSEHDQYHPSGHVIPSLTKQDLALPHMSPTILTNPCHFAKITKAYNVCDYKVYASIRDSSHQILVEFSQECVSNFERTHNCRITSETTNCLMIIGDADLVYVTNSRAMSHFKICLSNISSKEIVPVLNVNQATIFDIDQVGSLSTFPFVYKYL | binds
Est3p-K3A (natural protein, S. cerevisiae, UniProt Q03096 1-181, looked up) MPAVILESHSKPTDSVFLQPWIKALIEDNSEHDQYHPSGHVIPSLTKQDLALPHMSPTILTNPCHFAKITKFYNVCDYKVYASIRDSSHQILVEFSQECVSNFERTHNCRITSETTNCLMIIGDADLVYVTNSRAMSHFKICLSNISSKEIVPVLNVNQATIFDIDQVGSLSTFPFVYKYL | binds
